Test results: doi:10.1101/2025.08.11.669711

Target: UCH37•RPN13 (UniProt Q16186)
Assay: steady-state enzyme inhibition kinetics; cleavage of K6/K48 tri-Ub by UCH37•RPN13 (0.5 μM) with varied Nb-ncS1; 50 mM HEPES pH 7.5, 50 mM NaCl, 1 mM DTT; 37 °C; competitive inhibition fit

Chain of UCH37•RPN13 (Q16186 whole entry, looked up): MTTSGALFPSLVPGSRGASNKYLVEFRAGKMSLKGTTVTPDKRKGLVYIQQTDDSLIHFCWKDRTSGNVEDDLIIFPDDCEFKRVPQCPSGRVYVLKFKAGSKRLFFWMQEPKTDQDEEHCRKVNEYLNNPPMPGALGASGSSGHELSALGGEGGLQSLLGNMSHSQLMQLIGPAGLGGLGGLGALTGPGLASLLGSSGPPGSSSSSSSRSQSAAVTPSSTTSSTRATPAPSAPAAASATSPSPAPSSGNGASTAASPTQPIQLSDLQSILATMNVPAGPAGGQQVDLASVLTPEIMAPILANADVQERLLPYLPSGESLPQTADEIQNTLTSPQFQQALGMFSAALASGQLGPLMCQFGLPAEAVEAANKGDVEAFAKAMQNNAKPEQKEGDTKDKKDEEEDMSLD

B1: Nb-ncS1 (His-tagged) (VHH)
VHH: RVQLQESGGGLVQAGGSLRLSCAASGYIFRSYRMGWYRQAPGKERELVAAIGLGGNTYYADSVKGRFTISRDNAKNTVYQQMNSLKPEDTAVYYCAALYGKPPAFSPFPYWGQGTQVTVSS
Ki: 0.12 µM
